The results in this text go back to patent publication US20230135471A1 (INTEGRATED DNA TECHNOLOGIES, published 2023).

Test [1] concerns the target MBP tagged 53BP1 fragment (a.a. 1484-1603). In words: BLI, fold change Ka of Ubv/Ka of CM1.
Test [2] shares this target. The test can be described thus: BLI, KA (M-1), log axis.

Numbering of substitutions follows the chain as printed.

B1: CM149 (designed binder)
Ubv: MHHHHHHGGSGYLIFVRMLTGKMIELEVMPSDTIEVIKAKIQDHEGIPLDEQHLTFQGTLLDDGYTLGDYNLLIDPKKMPLLRMQ
Turning to B1, the binding result in test [1] is on record as “binds”.

B2: CM149-DM (designed binder)
Ubv: B1 Ubv with P80L, L81V
notes: also called CM210
For the molecule B2, the binding result in test [2] is on record as “binds”.
